Data: patent publication US20200261490

B1: recombinant human PAPP-A (pregnancy-associated plasma protein-A, pappalysin-1) (protein)
chain: EARGATEEPSPPSRALYFSGRGEQLRLRADLELPRDAFTLQVWLRAEGGQRSPAVITGLYDKCSYISRDRGWVVGIHTISDQDNKDPRYFFSLKTDRARQVTTINAHRSYLPGQWVYLAATYDGQFMKLYVNGAQVATSGEQVGGIFSPLTQKCKVLMLGGSALNHNYRGYIEHFSLWKVARTQREILSDMETHGAHTALPQLLLQENWDNVKHAWSPMKDGSSPKVEFSNAHGFLLDTSLEPPLCGQTLCDNTEVIASYNQLSSFRQPKVVRYRVVNLYEDDHKNPTVTREQVDFQHHQLAEAFKQYNISWELDVLEVSNSSLRRRLILANCDISKIGDENCDPECNHTLTGHDGGDCRHLRHPAFVKKQHNGVCDMDCNYERFNFDGGECCDPEITNVTQTCFDPDSPHRAYLDVNELKNILKLDGSTHLNIFFAKSSEEELAGVATWPWDKEALMHLGGIVLNPSFYGMPGHTHTMIHEIGHSLGLYHVFRGISEIQSCSDPCMETEPSFETGDLCNDTNPAPKHKSCGDPGPGNDTCGFHSFFNTPYNNFMSYADDDCTDSFTPNQVARMHCYLDLVYQGWQPSRKPAPVALAPQVLGHTTDSVTLEWFPPIDGHFFERELGSACHLCLEGRILVQYASNASSPMPCSPSGHWSPREAEGHPDVEQPCKSSVRTWSPNSAVNPHTVPPACPEPQGCYLELEFLYPLVPESLTIWVTFVSTDWDSSGAVNDIKLLAVSGKNISLGPQNVFCDVPLTIRLWDVGEEVYGIQIYTLDEHLEIDAAMLTSTADTPLCLQCKPLKYKVVRDPPLQMDVASILHLNRKFVDMDLNLGSVYQYWVITISGTEESEPSPAVTYIHGSGYCGDGIIQKDQGEQCDDMNKINGDGCSLFCRQEVSFNCIDEPSRCYFHDGDGVCEEFEQKTSIKDCGVYTPQGFLDQWASNASVSHQDQQCPGWVIIGQPAASQVCRTKVIDLSEGISQHAWYPCTISYPYSQLAQTTFWLRAYFSQPMVAAAVIVHLVTDGTYYGDQKQETISVQLLDTKDQSHDLGLHVLSCRNNPLIIPVVHDLSQPFYHSQAVRVSFSSPLVAISGVALRSFDNFDPVTLSSCQRGETYSPAEQSCVHFACEKTDCPELAVENASLNCSSSDRYHGAQCTVSCRTGYVLQIRRDDELIKSQTGPSVTVTCTEGKWNKQVACEPVDCSIPDHHQVYAASFSCPEGTTFGSQCSFQCRHPAQLKGNNSLLTCMEDGLWSFPEALCELMCLAPPPVPNADLQTARCRENKHKVGSFCKYKCKPGYHVPGSSRKSKKRAFKTQCTQDGSWQEGACVPVTCDPPPPKFHGLYQCTNGFQFNSECRIKCEDSDASQGLGSNVIHCRKDGTWNGSFHVCQEMQGQCSVPNELNSNLKLQCPDGYAIGSECATSCLDHNSESIILPMNVTVRDIPHWLNPTRVERVVCTAGLKWYPHPALIHCVKGCEPFMGDNYCDAINNRAFCNYDGGDCCTSTVKTKKVTPFPMSCDLQGDCACRDPQAQEHSRKDLRGYSHG
B2: human ADAM-10 (protein)
chain: TTSAEKNTCQLYIQTDHLFFKYYGTREAVIAQISSHVKAIDTIYQTTDFSGIRNISFMVKRIRINTTADEKDPTNPFRFPNIGVEKFLELNSEQNHDDYCLAYVFTDRDFDDGVLGLAWVGAPSGSSGGICEKSKLYSDGKKKSLNTGIITVQNYGSHVPPKVSHITFAHEVGHNFGSPHDSGTECTPGESKNLGQKENGNYIMYARATSGDKLNNNKFSLCSIRNISQVLEKKRNNCFVESGQPICGNGMVEQGEECDCGYSDQCKDECCFDANQPEGRKCKLKPGKQCSPSQGPCCTAQCAFKSKSEKCRDDSDCAREGICNGFTALCPASDPKPNFTDCNRHTQVCINGQCAGSICEKYGLEECTCASSDGKDDKELCHVCCMKKMDPSTCASTGSVQWSRHFSGRTITLQPGSPCNDFRGYCDVFMRCRLVDADGPLARLKKAIFSPELYENIAE
B3: human matrix metalloproteinase-2 (protein)
chain: APSPIIKFPGDVAPKTDKELAVQYLNTFYGCPKESCNLFVLKDTLKKMQKFFGLPQTGDLDQNTIETMRKPRCGNPDVANYNFFPRKPKWDKNQITYRIIGYTPDLDPETVDDAFARAFQVWSDVTPLRFSRIHDGEADIMINFGRWEHGDGYPFDGKDGLLAHAFAPGTGVGGDSHFDDDELWTLGEGQVVRVKYGNADGEYCKFPFLFNGKEYNSCTDTGRSDGFLWCSTTYNFEKDGKYGFCPHEALFTMGGNAEGQPCKFPFRFQGTSYDSCTTEGRTDGYRWCGTTEDYDRDKKYGFCPETAMSTVGGNSEGAPCVFPFTFLGNKYESCTSAGRSDGKMWCATTANYDDDRKWGFCPDQGYSLFLVAAHEFGHAMGLEHSQDPGALMAPIYTYTKNFRLSQDDIKGIQELYGASPDIDLGTGPTPTLGPVTPEICKQDIVFDGIAQIRGEIFFFKDRFIWRTVTPRDKPMGPLLVATFWPELPEKIDAVYEAPQEEKAVFFAGNEYWIYSASTLERGYPKPLTSLGLPPDVQRVDAAFNWSKNKKTYIFAGDKFWRYNEVKKKMDPGFPKLIADAWNAIPDNLDAVVDLQGGGHSYFFKGAYYLKLENQSLKSVKFGSIKSDWLGC
B4: human matriptase (protein)
chain: VVGGTDADEGEWPWQVSLHALGQGHICGASLISPNWLVSAAHCYIDDRGFRYSDPTQWTAFLGLHDQSQRSAPGVQERRLKRIISHPFFNDFTFDYDIALLELEKPAEYSSMVRPICLPDASHVFPAGKAIWVTGWGHTQYGGTGALILQKGEIRVINQTTCENLLPQQITPRMMCVGFLSGGVDSCQGDSGGPLSSVEADGRIFQAGVVSWGDGCAQRNKPGVYTRLPLFRDWIKENTGV

Key:
[1] = molecular target: recombinant human stanniocalcin 2, C-terminally myc-his-tagged
[2] = molecular target: recombinant human stanniocalcin 1, C-terminally myc-his-tagged

Row | Protein | PAPP-A cleavage of IGFBP-4 with purified STC added at the beginning of the cleavage reaction [1] | PAPP-A mediated cleavage of 125I-IGFBP-4 after overnight pre-incubation [1] | PAPP-A proteolytic activity towards IGFBP-4 after 16 h incubation [1] | PAPP-A cleavage of IGFBP-4 with purified STC added at the beginning of the cleavage reaction [2] | cleavage of 125I-IGFBP-5 by the proteinase with a 10-fold molar excess of STC, 8 h preincubation [1] | cleavage of 125I-IGFBP-5 by the proteinase with a 10-fold molar excess of STC [2]
1 | B1 | in this experiment, no inhibitory effect of STC2 was observed | the presence of STC2 fully inhibited PAPP-A mediated IGFBP-4 cleavage | after 16 hours of incubation with STC2, PAPP-A showed no activity | STC1 still inhibited PAPP-A |  | 
2 | B2 |  |  |  |  | None of the proteinases tested was inhibited by STC1, or by STC2 following incubation | None of the proteinases tested was inhibited by STC1, or by STC2 following incubation
3 | B3 |  |  |  |  | None of the proteinases tested was inhibited by STC1, or by STC2 following incubation | None of the proteinases tested was inhibited by STC1, or by STC2 following incubation
4 | B4 |  |  |  |  | None of the proteinases tested was inhibited by STC1, or by STC2 following incubation | None of the proteinases tested was inhibited by STC1, or by STC2 following incubation
